Test [1] concerns the target T1, CD47 on the cell membrane surface of human cells (normal human RBCs, Raji, LOVO) (human, UniProt Q08722 19-323).
T1 construct: whole, on cells; also called CD47 on the cell membrane surface of normal human RBCs; CD47 on the cell membrane surface of Raji cells
Nature of the test: flow cytometry on human RBCs. A general note: Flow cytometry measures light scatter and fluorescence of single cells or particles in a stream.
Procedure: Fresh blood was mixed well with blood buffer (blood dilution ratio of 1:3 after concentration). […] The tubes were each centrifuged at 1550 rpm for 30 min after balancing. The PBMCs in the middle buffy coat layer were pipetted. The blood buffer was added in a volume ratio of cells to blood buffer of 1:4. The resulting mixture was well mixed and centrifuged at 950 rpm for 15 min, and the supernatant was discarded. 20 mL of the blood buffer was added to resuspend PBMCs. The resulting suspension was centrifuged, and the supernatant was discarded. Centrifugation was performed, followed by two washings. […] Centrifugation was performed and the supernatant was discarded. […] 500 μL of 1% PBSA was added to each tube, followed by centrifugation at 5600 rpm for 5 min. The supernatant was discarded. 100 μL of the antibody with a corresponding concentration was added (final concentrations: 300, 100, 10, 1, 0.1, 0.01, 0.001 nM) to each tube, and a Blank (PBSA+ cells) and an isotype control were designed, followed by incubation on ice for 1 h. […] 200 μL of 1% washing buffer was added to each tube to resuspend the cells, and fluorescence signals were detected with FITC channel on a flow cytometer. The results were analyzed using Flowing software, and curve fittings were performed separately using MFI and sample concentration on GraphPad prism 5 to calculate EC50.

The target of test [2] is T1, CD47 on the cell membrane surface of …. Nature of the test: flow cytometry on Raji cells.
Test [3] shares this target. Nature of the test: flow cytometry on LOVO cells.
Procedure: The cell pellets were resuspended in 500 μL of 1% PBSA and counted, and the viability was determined. The cells were transferred to 1.5 mL tubes according to 3.0×10⁵ cells/500 μL/tube, and centrifuged at 5600 rpm for 5 min, and the supernatant was discarded. […] Then 500 μL of 1% PBSA was added, followed by centrifugation at 5600 rpm for 5 min, and the supernatant was discarded. 100 μL of FITC goat anti-human IgG (1:500) was added to each tube, and the mixtures were well mixed and incubated on ice for 30 min in the dark. 500 μL of 1% PBSA was added, followed by centrifugation at 5600 rpm for 5 min, and the supernatant was discarded. 200 μL of 1% PBSA was added to each tube to resuspend the cells, and the suspensions were transferred to flow cytometry tubes and detected by a flow cytometer BD FACSCalibur. The results were analyzed using Flowing software, and curve fittings were performed separately using MFI and sample concentration on GraphPad prism 5 to calculate EC50.
Test [4] has the same target. Put plainly: flow cytometry competition vs SIRPα-ECD-mFc on LOVO cells.
For test [5] the target is unchanged. Nature of the test: flow cytometry competition vs SIRPα-ECD-mFc 20 nM on Raji cells.
Procedure: Raji cells in the log phase were routinely collected, centrifuged and washed. The cell pellets were resuspended in 1% PBSA and counted, and the viability was determined. The cell concentration was adjusted with 1% PBSA into a suitable range, and the cells were transferred in groups into 1.5 mL tubes at 500 μL per tube, for a total of 0.3 million cells. The cells were centrifuged at 5600 rpm for 5 min, and the supernatant was discarded. The antibody serially diluted was added (final concentrations in descending order: 1, 0.3, 0.1, 0.01, 0.001, 0.0001 nM), and a blank control (100 μL of 1% PBSA+ cells) and an isotype control (human hIgG) were set up, followed by incubation on ice for 30 min. […] 1% PBSA was added, followed by centrifugation at 5600 rpm for 5 min, and the supernatant was discarded. 100 μL of FITC goat anti-mouse IgG (1:500 dilution) was added to each tube, followed by incubation on ice for 40 min in the dark. 500 μL of 1% PBSA was added, followed by centrifugation at 5600 rpm for 5 min, and the supernatant was discarded. 200 μL of 1% PBSA was added to resuspend the cell pellets. Fluorescence signals were detected with FITC channel on a flow cytometer.
Test [6] deals with T2, human CD47 IgV TEV-His (human, UniProt Q08722 19-141).
T2 construct: range 19-141; Recombinant fusion protein synthesized by Akeso; residue numbers count on NP_942088.1; not shown: his tag
Put plainly: Biacore SPR, CD47 IgV-TEV-His amine-coupled to chip, antibody 0.78-12.5 nM, 1:1 model. (SPR reads the build-up and loss of mass on a sensor chip optically.)

The target in test [7] is T2, human CD47 IgV TEV-His. Put plainly: competitive ELISA vs SIRPα ECD-hFc-Biotin 0.1 ug/mL on coated CD47 IgV TEV-His (blocking EC50). (In general: ELISA stands for enzyme-linked immunosorbent assay.)
Procedure: (§1) Experimental procedures: A microplate was coated with 2 μg/mL human CD47 IgV TEV-His at 50 μL per well and incubated at 4° C. for 16 h. The microplate was washed once and tapped dry, blocked with 1% BSA (in PBS) at 300 μL per well, incubated at 37° C. for 2 h, and washed three times and tapped dry. […] Two duplicate wells were set for the above concentrations, with a final volume of 50 μL per well, and the plate was incubated for 10 min. […] The microplate was washed three times and tapped dry. 50 μL of SA-HRP (KPL, 14-30-00) working solution was added to each well, and the microplate was incubated at 37° C. for 30 min. The microplate was washed four times and tapped dry. 50 μL of TMB chromogenic solution was added to each well for color developing for 5 min at room temperature in the dark, and then the color development was terminated by adding 50 μL of stop solution to each well. Then the microplate was put into a microplate reader immediately, and the OD value of each well in the microplate was read at 450 nm. The data were analyzed and processed by SoftMax Pro 6.2.1.
Test [8] concerns the target T1, CD47 on the cell membrane surface of …. Nature of the test: flow cytometry on Raji cells. The source holds these as a separate data set.
Procedure: Raji cells in the log phase were collected, centrifuged, and washed. The cell pellets were resuspended in 1% PBSA and counted, and the viability was determined. The cells were transferred to 1.5 mL tubes according to 3.0×10⁵ cells/500 μL/tube, and centrifuged at 5600 rpm for 5 min, and the supernatant was discarded. 100 μL of the corresponding antibody serially diluted was added to each tube according to the experimental design, and a blank group (PBSA+ cells) and an isotype control (hIgG) group were designed, followed by incubation on ice for 1 h. Then 1% PBSA was added, followed by centrifugation at 5600 rpm for 5 min, and the supernatant was discarded. 100 μL of FITC goat anti-human IgG (1:500) was added to each tube, and the mixtures were well mixed and incubated on ice for 30 min in the dark. 500 μL of 1% PBSA was added, followed by centrifugation at 5600 rpm for 5 min, and the supernatant was discarded. 1% PBSA was added to each tube to resuspend the cells, and fluorescence signals were detected with FITC channel on a flow cytometer. Curve fittings were performed separately using MFI and sample concentration to calculate EC50.
Test [9] has as its target T2, human CD47 IgV TEV-His. Nature of the test: indirect ELISA, coated CD47 IgV TEV-His 2 ug/mL.
Procedure: Experimental procedures: A microplate was coated with 2 μg/mL human CD47 IgV TEV-His and incubated at 4° C. for 12 h. The antigen-coated microplate was rinsed 3 times with PBS, and then blocked with 1% BSA in PBS for 2 h. The microplate was rinsed 3 times with PBS. The antibody serially diluted with PBST solution was added into the wells of the microplate, the dilution gradients for the antibody detailed in Table 2. The microplate containing the test antibody was incubated at 37° C. for 30 min, and then washed 3 times with PBST. […] The microplate was washed 3 times with PBST. […] Then the microplate was put into a microplate reader immediately, and the OD value of each well in the microplate was read at 450 nm. The data were analyzed by SoftMax Pro 6.2.1.
Test [10] has as its target T1, CD47 on the cell membrane surface of …. Put plainly: flow cytometry competition vs SIRPα-mFc 20 nM on LOVO cells.
Procedure: The cell pellets were resuspended in 1% PBSA and counted, and the viability was determined. The cell concentration was adjusted with 1% PBSA into a suitable range, and the cells were transferred in groups into 1.5 mL tubes at 500 μL per tube, for a total of 0.3 million cells. The cells were centrifuged at 5600 rpm for 5 min, and the supernatant was discarded. The antibody serially diluted was added (final concentrations in descending order: 300, 100, 10, 1, 0.3, 0.1, 0.01, 0.001, 0.0001 nM), and a blank control (100 μL of 1% PBSA+ cells) and an isotype control (human hIgG) were set up, followed by incubation on ice for 30 min. […] 1% PBSA was added, followed by centrifugation at 5600 rpm for 5 min, and the supernatant was discarded. 100 μL of FITC goat anti-mouse IgG (1:500 dilution) was added to each tube, followed by incubation on ice for 40 min in the dark. 1% PBSA was added, followed by centrifugation at 5600 rpm for 5 min, and the supernatant was discarded. 200 μL of 1% PBSA was added to resuspend the cell pellets, and the suspensions were transferred to flow cytometry tubes. Fluorescence signals were detected with FITC channel on a flow cytometer. Curve fittings were performed separately using MFI and sample concentration to calculate EC50.
The target of test [11] is T2, human CD47 IgV TEV-His. Nature of the test: competitive ELISA vs SIRPα ECD-hFc-Biotin 0.1 ug/mL on coated CD47 IgV TEV-His (blocking EC50). This is another data set of the same source.
Procedure: as §1
Test [12] has as its target T2, human CD47 IgV TEV-His. Put plainly: Fortebio BLI, antibody amine-coupled to AR2G sensor, antigen 3.125-100 nM.
Source text: The sensor was equilibrated in PBST for 300 s. […] The antigen and the antibody were subjected to dissociation in PBST for 600 s.

The term EC50 denotes the concentration that produces a half-maximal response. A lower EC50 goes with a more potent agent. As a reminder, the Kd is a measure of binding affinity in units of concentration. What is called koff is the rate constant with which the complex falls apart. Low values mean slow dissociation, high ones fast dissociation. In general, kon refers to the rate constant with which the complex forms.

B1: 6F7 H1L1(hG4) (antibody, human IgG4, kappa)
heavy: not shown
light: NIVMTQSPATMSMSPGERVTLSCRASEIVGTYVSWFQQKPGQAPRLLIYGASNRYTGVPARFSGSGSGTDFTLTISSVQPEDLADYHCGQSYNFPYTFGGGTKLEIKRTVAAPSVFIFPPSDEQLKSGTASVVCLLNNFYPREAKVQWKVDNALQSGNSQESVTEQDSKDSTYSLSSTLTLSKADYEKHKVYACEVTHQGLSSPVTKSFNRGEC
notes: Humanized 6F7
Turning to B1, the concentration giving a half-maximal response (EC50) was 0.6 nM in test [1]; 0.32 nM in test [2]; 0.02 nM in test [3]; 0.1 nM in test [4]; 0.017 nM in test [5]; 0.194 nM in [7]. The molecule also returned a Kd in test [6] of 0.152 nM.

B2: 6F7 H1L1(G1M) (antibody, human IgG1, kappa, L234A L235A)
heavy: not shown
light: B1 light
notes: Humanized 6F7; also called 6F7 H1L1(hG1DM)
On to B2, for which the EC50 in test [8] was found to be 0.013 nM; in test [9] it was 0.037 nM; in [10] it was 0.16 nM; in test [11], 0.274 nM.

B3: murine antibody 6F7 (antibody, V domains shown)
VH: QVQLQQPGAELVRPGASVKLSCKASGYTFTSYWMNWVKQRPGQGLEWIGMIDPSDSETHNNQMFKDKATLTVDKSSNTAYMHLSSLTSEDSAVYHCARLYRWYFDVWGAGTTVTVSS
VL: NIVMTQSPKSMSMSLGERVTLSCKASEIVGTYVSWFQQKPHQSPKLLIYGASNRYTGVPDRFTGSGSATDFTLTISNVQAEDLADYHCGQSYNFPYTFGGGTKLEIK
notes: Murine hybridoma antibody purified on protein A; also called monoclonal antibody secreted by hybridoma cell line LT012 (CD47-6F7)
Regarding B3, in test [12], the Kd was 0.652 nM, the off-rate (koff) was found to be 0.000256 s⁻¹ and the kon was determined as 393000 M⁻¹ s⁻¹.

These data come from patent publication US20220324971A1 (AKESO BIOPHARMA, published 2022).
